Source: US20230407373A1 (priority 2020, published 2023)

B1: BAZ1B (protein, UniProt Q9UIG0 1-1483, looked up)
Tyrosine-protein kinase BAZ1B: MAPLLGRKPFPLVKPLPGEEPLFTIPHTQEAFRTREEYEARLERYSERIWTCKSTGSSQLTHKEAWEEEQEVAELLKEEFPAWYEKLVLEMVHHNTASLEKLVDTAWLEIMTKYAVGEECDFEVGKEKMLKVKIVKIHPLEKVDEEATEKKSDGACDSPSSDKENSSQIAQDHQKKETVVKEDEGRRESINDRARRSPRKLPTSLKKGERKWAPPKFLPHKYDVKLQNEDKIISNVPADSLIRTERPPNKEIVRYFIRHNALRAGTGENAPWVVEDELVKKYSLPSKFSDFLLDPYKYMTLNPSTKRKNTGSPDRKPSKKSKTDNSSLSSPLNPKLWCHVHLKKSLSGSPLKVKNSKNSKSPEEHLEEMMKMMSPNKLHTNFHIPKKGPPAKKPGKHSDKPLKAKGRSKGILNGQKSTGNSKSPKKGLKTPKTKMKQMTLLDMAKGTQKMTRAPRNSGGTPRTSSKPHKHLPPAALHLIAYYKENKDREDKRSALSCVISKTARLLSSEDRARLPEELRSLVQKRYELLEHKKRWASMSEEQRKEYLKKKREELKKKLKEKAKERREKEMLERLEKQKRYEDQELTGKNLPAFRLVDTPEGLPNTLFGDVAMVVEFLSCYSGLLLPDAQYPITAVSLMEALSADKGGFLYLNRVLVILLQTLLQDEIAEDYGELGMKLSEIPLTLHSVSELVRLCLRRSDVQEESEGSDTDDNKDSAAFEDNEVQDEFLEKLETSEFFELTSEEKLQILTALCHRILMTYSVQDHMETRQQMSAELWKERLAVLKEENDKKRAEKQKRKEMEAKNKENGKVENGLGKTDRKKEIVKFEPQVDTEAEDMISAVKSRRLLAIQAKKEREIQEREMKVKLERQAEEERIRKHKAAAEKAFQEGIAKAKLVMRRTPIGTDRNHNRYWLFSDEVPGLFIEKGWVHDSIDYRFNHHCKDHTVSGDEDYCPRSKKANLGKNASMNTQHGTATEVAVETTTPKQGQNLWFLCDSQKELDELLNCLHPQGIRESQLKERLEKRYQDIIHSIHLARKPNLGLKSCDGNQELLNFLRSDLIEVATRLQKGGLGYVEETSEFEARVISLEKLKDFGECVIALQASVIKKFLQGFMAPKQKRRKLQSEDSAKTEEVDEEKKMVEEAKVASALEKWKTAIREAQTFSRMHVLLGMLDACIKWDMSAENARCKVCRKKGEDDKLILCDECNKAFHLFCLRPALYEVPDGEWQCPACQPATARRNSRGRNYTEESASEDSEDDESDEEEEEEEEEEEEEDYEVAGLRLRPRKTIRGKHSVIPPAARSGRRPGKKPHSTRRSQPKAPPVDDAEVDELVLQTKRSSRRQSLELQKCEEILHKIVKYRFSWPFREPVTRDEAEDYYDVITHPMDFQTVQNKCSCGSYRSVQEFLTDMKQVFTNAEVYNCRGSHVLSCMVKTEQCLVALLHKHLPGHPYVRRKRKKFPDRLAEDEGDSEPEAVGQSRGRRQKK
B2: DDX21 (protein, UniProt Q9NR30 1-783, looked up)
Nucleolar RNA helicase 2: MPGKLRSDAGLESDTAMKKGETLRKQTEEKEKKEKPKSDKTEEIAEEEETVFPKAKQVKKKAEPSEVDMNSPKSKKAKKKEEPSQNDISPKTKSLRKKKEPIEKKVVSSKTKKVTKNEEPSEEEIDAPKPKKMKKEKEMNGETREKSPKLKNGFPHPEPDCNPSEAASEESNSEIEQEIPVEQKEGAFSNFPISEETIKLLKGRGVTFLFPIQAKTFHHVYSGKDLIAQARTGTGKTFSFAIPLIEKLHGELQDRKRGRAPQVLVLAPTRELANQVSKDFSDITKKLSVACFYGGTPYGGQFERMRNGIDILVGTPGRIKDHIQNGKLDLTKLKHVVLDEVDQMLDMGFADQVEEILSVAYKKDSEDNPQTLLFSATCPHWVFNVAKKYMKSTYEQVDLIGKKTQKTAITVEHLAIKCHWTQRAAVIGDVIRVYSGHQGRTIIFCETKKEAQELSQNSAIKQDAQSLHGDIPQKQREITLKGFRNGSFGVLVATNVAARGLDIPEVDLVIQSSPPKDVESYIHRSGRTGRAGRTGVCICFYQHKEEYQLVQVEQKAGIKFKRIGVPSATEIIKASSKDAIRLLDSVPPTAISHFKQSAEKLIEEKGAVEALAAALAHISGATSVDQRSLINSNVGFVTMILQCSIEMPNISYAWKELKEQLGEEIDSKVKGMVFLKGKLGVCFDVPTASVTEIQEKWHDSRRWQLSVATEQPELEGPREGYGGFRGQREGSRGFRGQRDGNRRFRGQREGSRGPRGQRSGGGNKSNRSQNKGQKRSFSKAFGQ
B3: RBFOX2 (protein, UniProt O43251 1-390, looked up)
RNA binding protein fox-1 …: MQNEPLTPGYHGFPARDSQGNQEPTTTPDAMVQPFTTIPFPPPPQNGIPTEYGVPHTQDYAGQTGEHNLTLYGSTQAHGEQSSNSPSTQNGSLTTEGGAQTDGQQSQTQSSENSESKSTPKRLHVSNIPFRFRDPDLRQMFGQFGKILDVEIIFNERGSKGFGFVTFENSADADRAREKLHGTVVEGRKIEVNNATARVMTNKKMVTPYANGWKLSPVVGAVYGPELYAASSFQADVSLGNDAAVPLSGRGGINTYIPLISLPLVPGFPYPTAATTAAAFRGAHLRGRGRTVYGAVRAVPPTAIPAYPGVVYQDGFYGADLYGGYAAYRYAQPATATAATAAAAAAAAYSDGYGRVYTADPYHALAPAASYGVGAVASLYRGGYSRFAPY
B4: KRT6A (protein, UniProt P02538 2-564, looked up)
Keratin, type II cytoskeletal …: ASTSTTIRSHSSSRRGFSANSARLPGVSRSGFSSVSVSRSRGSGGLGGACGGAGFGSRSLYGLGGSKRISIGGGSCAISGGYGSRAGGSYGFGGAGSGFGFGGGAGIGFGLGGGAGLAGGFGGPGFPVCPPGGIQEVTVNQSLLTPLNLQIDPTIQRVRAEEREQIKTLNNKFASFIDKVRFLEQQNKVLETKWTLLQEQGTKTVRQNLEPLFEQYINNLRRQLDSIVGERGRLDSELRGMQDLVEDFKNKYEDEINKRTAAENEFVTLKKDVDAAYMNKVELQAKADTLTDEINFLRALYDAELSQMQTHISDTSVVLSMDNNRNLDLDSIIAEVKAQYEEIAQRSRAEAESWYQTKYEELQVTAGRHGDDLRNTKQEIAEINRMIQRLRSEIDHVKKQCANLQAAIADAEQRGEMALKDAKNKLEGLEDALQKAKQDLARLLKEYQELMNVKLALDVEIATYRKLLEGEECRLNGEGVGQVNISVVQSTVSSGYGGASGVGSGLGLGGGSSYSYGSGLGVGGGFSSSSGRAIGGGLSSVGGGSSTIKYTTTSSSSRKSYKH
B5: PKP1 (protein, UniProt Q13835 1-747, looked up)
Plakophilin-1: MNHSPLKTALAYECFQDQDNSTLALPSDQKMKTGTSGRQRVQEQVMMTVKRQKSKSSQSSTLSHSNRGSMYDGLADNYNYGTTSRSSYYSKFQAGNGSWGYPIYNGTLKREPDNRRFSSYSQMENWSRHYPRGSCNTTGAGSDICFMQKIKASRSEPDLYCDPRGTLRKGTLGSKGQKTTQNRYSFYSTCSGQKAIKKCPVRPPSCASKQDPVYIPPISCNKDLSFGHSRASSKICSEDIECSGLTIPKAVQYLSSQDEKYQAIGAYYIQHTCFQDESAKQQVYQLGGICKLVDLLRSPNQNVQQAAAGALRNLVFRSTTNKLETRRQNGIREAVSLLRRTGNAEIQKQLTGLLWNLSSTDELKEELIADALPVLADRVIIPFSGWCDGNSNMSREVVDPEVFFNATGCLRKRLGMRELLALVPQRATSSRVNLSSADAGRQTMRNYSGLIDSLMAYVQNCVAASRCDDKSVENCMCVLHNLSYRLDAEVPTRYRQLEYNARNAYTEKSSTGCFSNKSDKMMNNNYDCPLPEEETNPKGSGWLYHSDAIRTYLNLMGKSKKDATLEACAGALQNLTASKGLMSSGMSQLIGLKEKGLPQIARLLQSGNSDVVRSGASLLSNMSRHPLLHRVMGNQVFPEVTRLLTSHTGNTSNSEDILSSACYTVRNLMASQPQLAKQYFSSSMLNNIINLCRSSASPKAAEAARLLLSDMWSSKELQGVLRQQGFDRNMLGTLAGANSLRNFTSRF
B6: DHX8 (protein, UniProt Q14562 1-1220, looked up)
ATP-dependent RNA helicase …: MAVAVAMAGALIGSEPGPAEELAKLEYLSLVSKVCTELDNHLGINDKDLAEFVISLAEKNTTFDTFKASLVKNGAEFTDSLISNLLRLIQTMRPPAKPSTSKDPVVKPKTEKEKLKELFPVLCQPDNPSVRTMLDEDDVKVAVDVLKELEALMPSAAGQEKQRDAEHRDRTKKKKRSRSRDRNRDRDRDRERNRDRDHKRRHRSRSRSRSRTRERNKVKSRYRSRSRSQSPPKDRKDRDKYGERNLDRWRDKHVDRPPPEEPTIGDIYNGKVTSIMQFGCFVQLEGLRKRWEGLVHISELRREGRVANVADVVSKGQRVKVKVLSFTGTKTSLSMKDVDQETGEDLNPNRRRNLVGETNEETSMRNPDRPTHLSLVSAPEVEDDSLERKRLTRISDPEKWEIKQMIAANVLSKEEFPDFDEETGILPKVDDEEDEDLEIELVEEEPPFLRGHTKQSMDMSPIKIVKNPDGSLSQAAMMQSALAKERRELKQAQREAEMDSIPMGLNKHWVDPLPDAEGRQIAANMRGIGMMPNDIPEWKKHAFGGNKASYGKKTQMSILEQRESLPIYKLKEQLVQAVHDNQILIVIGETGSGKTTQITQYLAEAGYTSRGKIGCTQPRRVAAMSVAKRVSEEFGCCLGQEVGYTIRFEDCTSPETVIKYMTDGMLLRECLIDPDLTQYAIIMLDEAHERTIHTDVLFGLLKKTVQKRQDMKLIVTSATLDAVKFSQYFYEAPIFTIPGRTYPVEILYTKEPETDYLDASLITVMQIHLTEPPGDILVFLTGQEEIDTACEILYERMKSLGPDVPELIILPVYSALPSEMQTRIFDPAPPGSRKVVIATNIAETSLTIDGIYYVVDPGFVKQKVYNSKTGIDQLVVTPISQAQAKQRAGRAGRTGPGKCYRLYTERAYRDEMLTTNVPEIQRTNLASTVLSLKAMGINDLLSFDFMDAPPMETLITAMEQLYTLGALDDEGLLTRLGRRMAEFPLEPMLCKMLIMSVHLGCSEEMLTIVSMLSVQNVFYRPKDKQALADQKKAKFHQTEGDHLTLLAVYNSWKNNKFSNPWCYENFIQARSLRRAQDIRKQMLGIMDRHKLDVVSCGKSTVRVQKAICSGFFRNAAKKDPQEGYRTLIDQQVVYIHPSSALFNRQPEWVVYHELVLTTKEYMREVTTIDPRWLVEFAPAFFKVSDPTKLSKQKKQQRLEPLYNRYEEPNAWRISRAFRRR
B7: HNRNPA261 (protein, UniProt P22626 1-353, looked up)
Heterogeneous nuclear …: MEKTLETVPLERKKREKEQFRKLFIGGLSFETTEESLRNYYEQWGKLTDCVVMRDPASKRSRGFGFVTFSSMAEVDAAMAARPHSIDGRVVEPKRAVAREESGKPGAHVTVKKLFVGGIKEDTEEHHLRDYFEEYGKIDTIEIITDRQSGKKRGFGFVTFDDHDPVDKIVLQKYHTINGHNAEVRKALSRQEMQEVQSSRSGRGGNFGFGDSRGGGGNFGPGPGSNFRGGSDGYGSGRGFGDGYNGYGGGPGGGNFGGSPGYGGGRGGYGGGGPGYGNQGGGYGGGYDNYGGGNYGSGNYNDFGNYNQQPSNYGPMKSGNFGGSRNMGGPYGGGNYGPGGSGGSGGYGGRSRY

These molecules were tested on HCoV-OC43 gRNA and sgRNA. Conditions: 24 hpi; type n_24_v; tested against no-probe control; FDR<10%.
Format: binding

Row | Molecule | target (unweighted spectral count, OC43 Probe II capture)
1 | B1 | 4
2 | B2 | 7
3 | B3 | 4
4 | B4 | 4
5 | B5 | 4

Same assay, conditions: 36 hpi; type n_36_v; tested against no-probe control; FDR<10%

Row | Molecule | target (unweighted spectral count, OC43 Probe II capture)
6 | B3 | 4
7 | B6 | 27
8 | B7 | 70
